Measured values published in patent US20210032351A1 (XDCEXPLORER SHANGHAI, published 2021).
Ends that are not written are not given here. * marks the point of attachment. Biotin = O=C1N[C@H]2[C@H](CS[C@H]2CCCCC(=O)*)N1

Key:
Test in all cases: peptide dot matrix ELISA
[1] = molecular target: T1, pep17
T1 peptide: VRACGADSYEMEEDGVK(Biotin)

[2] = molecular target: T2, pep08 (cysteine pairing not given here)
T2 peptide: YVVTDHGSCVRACGADK(Biotin)

[3] = molecular target: T3, pep02
T3 peptide: EEKKGNYVVTDHGSCVK(Biotin)

[4] = molecular target: T4, pep10 (cysteine pairing not given here)
T4 peptide: VTDHGSCVRACGADSYK(Biotin)

[5] = molecular target: T5, pep25 (cysteine pairing not given here)
T5 peptide: YEMEEDGVRKCKKCEGK(Biotin)

[6] = molecular target: T6, pep22
T6 peptide: ADSYEMEEDGVRKCKKK(Biotin)

[7] = molecular target: T7, pep29 (cysteine pairing not given here)
T7 peptide: EDGVRKCKKCEGPCRKK(Biotin)

[8] = molecular target: T8, pep32 (cysteine pairing not given here)
T8 peptide: VRKCKKCEGPCRKVCNK(Biotin)

[9] = molecular target: T9, pep09 (cysteine pairing not given here)
T9 peptide: VVTDHGSCVRACGADSK(Biotin)

[10] = molecular target: T10, pep24 (cysteine pairing not given here)
T10 peptide: SYEMEEDGVRKCKKCEK(Biotin)

[11] = molecular target: T11, pep01
T11 peptide: LEEKKGNYVVTDHGSCK(Biotin)

[12] = molecular target: T12, pep23 (cysteine pairing not given here)
T12 peptide: DSYEMEEDGVRKCKKCK(Biotin)

[13] = molecular target: T13, pep11 (cysteine pairing not given here)
T13 peptide: TDHGSCVRACGADSYEK(Biotin)

[14] = molecular target: T14, pep03
T14 peptide: EKKGNYVVTDHGSCVRK(Biotin)

[15] = molecular target: T15, pep12 (cysteine pairing not given here)
T15 peptide: DHGSCVRACGADSYEMK(Biotin)

[16] = molecular target: T16, pep30 (cysteine pairing not given here)
T16 peptide: DGVRKCKKCEGPCRKVK(Biotin)

[17] = molecular target: T17, pep31 (cysteine pairing not given here)
T17 peptide: GVRKCKKCEGPCRKVCK(Biotin)

[18] = molecular target: T18, pep34 (cysteine pairing not given here)
T18 peptide: KCKKCEGPCRKVCNGIK(Biotin)

[19] = molecular target: T19, pep19
T19 peptide: ACGADSYEMEEDGVRKK(Biotin)

B1: Chimeric antibody 64F1 (antibody, V domains shown)
VH: QVQLQQSGAELARPGASVKMSCKASGYTFSSYTMHWAKQRPGQGLEWIGYINPSSGYTKYNQKFKDKATLTADKSSSTAYMQLSSLTSEDSIVYYCARGGGRGFAYWGQGTLVTVSA
VL: QIVLTQSPAIMSASPGERVTMTCSASSSVSYMYWYQQKPGSSPRLLIYDTSNLASGVPVRFSGSGSGTSYSLTISRVEAEDAATYYCQQWSSYSLTFGAGTKLELK
notes: also called 64F1F8 chimeric
[1]
  ELISA signal: 0.05
[2]
  ELISA signal: 0.05
[3]
  ELISA signal: 0.05
[4]
  ELISA signal: 0.05
[5]
  ELISA signal: 0.06
[6]
  ELISA signal: 0.08
[7]
  ELISA signal: 0.06
[8]
  ELISA signal: 0.06
[9]
  ELISA signal: 0.05
[10]
  ELISA signal: 0.06
[11]
  ELISA signal: 0.05
[12]
  ELISA signal: 0.07
[13]
  ELISA signal: 0.05
[14]
  ELISA signal: 0.05
[15]
  ELISA signal: 0.05
[16]
  ELISA signal: 0.06
[17]
  ELISA signal: 0.06
[18]
  ELISA signal: 0.07
[19]
  ELISA signal: 0.05
